For test [1], the target named is A/Japan/305/1957 (H2N2) hemagglutinin ectodomain (influenza A virus A/Japan/305/1957 (H2N2)). The test is described as follows: negative-stain EM, single-particle 3D reconstruction.
Test [2] concerns the target A/Hong Kong/1/1968 (H3N2) hemagglutinin ectodomain, biotinylated (influenza A virus A/Hong Kong/1/1968 (H3N2)). The test is described as follows: ITC. (In general: In ITC the heat of successive injections is recorded.)
Test [3] has the same target. The test is described as follows: BLI.
Test [4] has the same target. The test is described as follows: BLI. This is another data set of the same source. On the technique in general: In BLI a coated tip is dipped into the sample, and binding shifts an interference pattern.
Test [5] addresses hemagglutinin of A/Guiyang/1/1957 (H2N2) (influenza A virus A/Guiyang/1/1957 (H2N2)).
The target in test [6] is hemagglutinin of A/Virginia/670/1987 (H1N1) (influenza A virus A/Virginia/670/1987 (H1N1)).
Test [7] concerns the target hemagglutinin of A/Hong Kong/1073/1999 (H9N2) (influenza A virus A/Hong Kong/1073/1999 (H9N2)).
The target of test [8] is hemagglutinin of A/California/04/2009 (H1N1) (influenza A virus A/California/04/2009 (H1N1)) (UniProt C3W5S1).
In test [9] the target is A/Vietnam/1203/2004 (H5N1) hemagglutinin ectodomain (influenza A virus A/Vietnam/1203/2004 (H5N1)).
Test [10] deals with hemagglutinin of A/Memphis/3/2008 (H1N1) (influenza A virus A/Memphis/3/2008 (H1N1)).
The target of test [11] is hemagglutinin of A/Brisbane/59/2007 (H1N1) (influenza A virus A/Brisbane/59/2007 (H1N1)).

Where only a bound is given, the exact number is not on record here.

For the substance C05 Fab (Lys-C digestion of IgG), in test [1], the stoichiometry N (in general, a count of units in the complex or per binding partner) was 3.

For “C05 Fab (recombinant, for binding studies)”, the figures for the Kd in test [2], in test [3] and in [4] were 100 nM, 500 nM and 430 nM, respectively.

In the case of C05 IgG (antibody), the figures for the MIC, microneutralization (MN) in test [5] and in test [7] were 18 µg/mL and 90 µg/mL, respectively. The MIC, hemagglutination inhibition (HAI) in [6] was over 100 µg/mL; in test [8], over 100 µg/mL; in test [9], over 100 µg/mL; in [10], under 2.3 µg/mL; in [11], 1.56 µg/mL.
